From publication PMC5430869, “Structure-function analysis of the DNA-binding domain of a transmembrane transcriptional activator” come the findings set out here.

What all share (settings): protein: recombinant; tags: His6-thioredoxin removed by TEV; blunt
Data set [1] deals with T1, CadC1-159 WT (Escherichia coli, UniProt P23890 1-159).
T1 sequence: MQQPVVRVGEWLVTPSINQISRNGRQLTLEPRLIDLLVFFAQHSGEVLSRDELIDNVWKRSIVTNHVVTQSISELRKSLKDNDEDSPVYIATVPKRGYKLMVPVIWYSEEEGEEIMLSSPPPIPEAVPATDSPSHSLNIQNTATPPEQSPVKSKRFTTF
Put plainly: SPR; steady state; EMSA/NMR/ITC: 20 mM BisTris, 150 mM NaCl, pH 6.5, RT (NMR 10% D2O, 298 K; imino spectra 283 K); SPR: 10 mM HEPES pH 7.4, 150 mM NaCl, 3 mM EDTA, 0.05% P20, 25 C. For orientation: SPR reads the build-up and loss of mass on a sensor chip optically.

The target in another data set is T2, CadC1-159 E30R (Escherichia coli, UniProt P23890 1-159, E30R).
T2 sequence: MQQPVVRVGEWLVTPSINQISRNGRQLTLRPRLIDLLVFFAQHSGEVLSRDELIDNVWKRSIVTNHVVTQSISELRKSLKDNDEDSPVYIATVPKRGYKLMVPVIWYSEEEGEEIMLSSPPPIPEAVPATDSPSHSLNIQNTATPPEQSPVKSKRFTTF
The data set can be described thus: SPR; almost 30-fold; EMSA/NMR/ITC: 20 mM BisTris, 150 mM NaCl, pH 6.5, RT (NMR 10% D2O, 298 K; imino spectra 283 K); SPR: 10 mM HEPES pH 7.4, 150 mM NaCl, 3 mM EDTA, 0.05% P20, 25 C.

Data set [2] deals with T3, CadC1-107 (DBD) (Escherichia coli, UniProt P23890 1-107).
T3 sequence: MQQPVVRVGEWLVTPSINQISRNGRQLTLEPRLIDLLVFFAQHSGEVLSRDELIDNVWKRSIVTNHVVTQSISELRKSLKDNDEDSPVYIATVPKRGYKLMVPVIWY
Put plainly: NMR; EMSA/NMR/ITC: 20 mM BisTris, 150 mM NaCl, pH 6.5, RT (NMR 10% D2O, 298 K; imino spectra 283 K); SPR: 10 mM HEPES pH 7.4, 150 mM NaCl, 3 mM EDTA, 0.05% P20, 25 C. Background: Mobility shift assays separate free from complexed probe on a gel.

Data set [3] deals with T1, CadC1-159 WT. The data set can be described thus: SPR; steady state; construct called CadC DBD in legend, CadC1-159 in Methods; EMSA/NMR/ITC: 20 mM BisTris, 150 mM NaCl, pH 6.5, RT (NMR 10% D2O, 298 K; imino spectra 283 K); SPR: 10 mM HEPES pH 7.4, 150 mM NaCl, 3 mM EDTA, 0.05% P20, 25 C.
Data set [4] has as its target T3, CadC1-107 (DBD). Put plainly: NMR; smaller imino CSPs, line broadening; EMSA/NMR/ITC: 20 mM BisTris, 150 mM NaCl, pH 6.5, RT (NMR 10% D2O, 298 K; imino spectra 283 K); SPR: 10 mM HEPES pH 7.4, 150 mM NaCl, 3 mM EDTA, 0.05% P20, 25 C.
Data set [5] deals with T3, CadC1-107 (DBD). Put plainly: EMSA; identical to 41-mer; value only in figure; EMSA/NMR/ITC: 20 mM BisTris, 150 mM NaCl, pH 6.5, RT (NMR 10% D2O, 298 K; imino spectra 283 K); SPR: 10 mM HEPES pH 7.4, 150 mM NaCl, 3 mM EDTA, 0.05% P20, 25 C.
Data set [6] concerns the target T3, CadC1-107 (DBD). The data set can be described thus: NMR titration; 1:1 model; EMSA/NMR/ITC: 20 mM BisTris, 150 mM NaCl, pH 6.5, RT (NMR 10% D2O, 298 K; imino spectra 283 K); SPR: 10 mM HEPES pH 7.4, 150 mM NaCl, 3 mM EDTA, 0.05% P20, 25 C.

B1: Cad1 41-mer, biotinylated (SPR) (dsDNA)
DNA 1: TTGTAAACATTAAATGTTTATCTTTTCATGATATCAACTTG
DNA 2: CAAGTTGATATCATGAAAAGATAAACATTTAATGTTTACAA
As for B1, in the data set with CadC1-159 WT [1], the Kd stood at 0.38 µM. The binding signal in the data set with CadC1-159 E30R was ~30 fold increased affinity vs WT.

B2: Cad1B 13-mer (dsDNA)
DNA 1: GTTTATCTTTTCA
DNA 2: TGAAAAGATAAAC
For the molecule B2, in the data set with CadC1-107 (DBD) [2], the binding result is given as “binds”.

B3: Cad1 17-mer, biotinylated (SPR) (dsDNA)
DNA 1: TAAACATTAAATGTTTA
DNA 2: TAAACATTTAATGTTTA
For the molecule B3, the Kd with CadC1-159 WT [3] came to 23 µM.

B4: Cad1A 14-mer (dsDNA)
DNA 1: GTAAACATTAAATG
DNA 2: CATTTAATGTTTAC
B4: the binding result with CadC1-107 (DBD) [2] is “binds”.

B5: Cad1C 13-mer (dsDNA)
DNA 1: TGATATCAACTTG
DNA 2: CAAGTTGATATCA
Turning to B5, the binding result with CadC1-107 (DBD) [4] is “binds”.

B6: Cad1AB 26-mer (dsDNA)
DNA 1: GTAAACATTAAATGTTTATCTTTTCA
DNA 2: TGAAAAGATAAACATTTAATGTTTAC
Regarding B6, in the data set with CadC1-107 (DBD) [5], the binding result is “binds”.

B7: Cad1 17-mer (dsDNA)
DNA 1: TAAACATTAAATGTTTA
DNA 2: TAAACATTTAATGTTTA
For B7, the Kd in the data set with CadC1-107 (DBD) [6] was 67 ± 16 µM.

One may read the Kd as the free concentration of one partner at which half of the binding sites on the other are occupied at equilibrium, for simple one-to-one binding.
